± gives the half width of the 95% confidence interval.
Key:
[1] = folding stability dG unfold from chymotrypsin proteolysis; higher = more stable
In short: (§1)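 Designed mini-proteins with no cysteine and under 80 residues were kept only if AlphaFold2 dimer inter-PAE was above 15. In a PA-tagged cDNA display construct, they were digested with trypsin and chymotrypsin and then sequenced. K50 was inferred by Bayesian fitting of counts, and unfolding free energy was derived per protease or combined against a sequence-predicted unfolded-state K50 and a shared folded-state K50.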

[2] = folding stability dG unfold (combined trypsin and chymotrypsin); higher = more stable
In short: as §1

[3] = folding stability dG unfold from trypsin proteolysis; higher = more stable
In short: as §1

Sequence | folding stability dG unfold [1] | folding stability dG unfold [2] | folding stability dG unfold [3]
SATGKLAELLEEAFPDRPIASAEILGVEPLPDGRPALRFLLTFEDGSKLVVTVTSADHPEVLEAARENQSAG [r14_143_TrMRF] | 2.913 ± 0.014 kcal/mol | 2.96 ± 0.041 kcal/mol | 3.04 ± 0.064 kcal/mol
SAGWRQILDMARNMLENGHMFRIEWTGPGGKPQEFRIPLDDIETLLDNWPDPDDIRSVDIEVYPPGEPISAG [r5_957_TrROS] | 2.45 ± 0.056 kcal/mol | 2.22 ± 0.062 kcal/mol | 1.72 ± 0.021 kcal/mol
SAGGSAMKIKPGETVTIKVKNKETGEWFEAKIVKVDEEKGEIEIEVEVNGKKYTFTIPAEDIEIVESAGGSA [r15_381_TrROS_Hall] | 3.12 ± 0.077 kcal/mol | 2.89 ± 0.29 kcal/mol | 1.87 ± 0.33 kcal/mol
SAGGSAGGSAGGELVLKIKVKPGEKVKLKLKLFDKNGKLVEEFEVEVEVVKEGDTLYIRLSAGGSAGGSAGG [r7_63_TrROS_Hall] | 4.03 ± 0.052 kcal/mol | 3.67 ± 0.11 kcal/mol | 2.69 ± 0.064 kcal/mol
SAGGSAGGSAGKKKKKPKKKYVFIVIKINLSEEELKKLAEELGIDKVFKNENGYAVLVVKSAGGSAGGSAGG [r11_64_TrROS_Hall] | 3.56 ± 0.059 kcal/mol | 3.15 ± 0.13 kcal/mol | 2.19 ± 0.12 kcal/mol
SGYLDAPVKDIKVEKKPIPTSGKVTYTFEAETEDGKPVRVEYNPVTGKIVFGLPPGFKIKPGKPAEVVVGSA [r9_509_TrMRF] | 0.885 ± 0.2 kcal/mol | 0.718 ± 0.13 kcal/mol | 0.16 ± 0.081 kcal/mol
SAGGEKVKLRIYVYRRTVERDPATGELRERYELVEEIEIEVEPGETLEDILAKLKLPPGWRIVRVERESAGG [r13_716_TrROS_Hall] | 5.424 ± 0.053 kcal/mol | 5.24 ± 0.076 kcal/mol | 4.39 ± 0.091 kcal/mol
SAGGSAGGPIVIKVKSLEEAKELVEKLAKELTPENVKVEIKEVFEPENSYYVVIEIKTASPEEESAGGSAGG [r6_72_TrMRF] | 2.51 ± 0.097 kcal/mol | 2.65 ± 0.22 kcal/mol | 2.85 ± 0.14 kcal/mol
SAGPPKTRTVMFPPEDIPKILEELKKLPPDITIHFPDPDPGNWFMIEVTDDEIKIENPGNGEERTIPISAGG [r19_154_TrROS] | 0.252 ± 0.11 kcal/mol | 0.0412 ± 0.16 kcal/mol | -0.712 ± 0.24 kcal/mol
SAGGSAGGSAKKIVIKVKPGMTEEEILEEIAKKLGLKPEKIKKIEIERNKDGYLYVTIEIESAGGSAGGSAG [r3_26_TrROS_Hall] | 3.87 ± 0.065 kcal/mol | 3.82 ± 0.083 kcal/mol | 3.66 ± 0.16 kcal/mol
SAGSPVVIKVSKVDSSGNWTLLEEIPIPPSEVSGVELVGDSLKILPPGSGGSYTFTIENSTVTVSIEESAGG [r19_408_JUSTAS] | 1.27 ± 0.084 kcal/mol | 0.933 ± 0.06 kcal/mol | 0.465 ± 0.038 kcal/mol
SAGGSAGGSANWKEIDGTLPWGLRVKVWVSPGNGQLMIEIKPVPPPPPPKISPEDADKANADSAGGSAGGSA [r18_236_TrROS] | 4.06 ± 0.13 kcal/mol | 3.39 ± 0.3 kcal/mol | 2.31 ± 0.072 kcal/mol
SAGGSAGGSAGGMPTYEVTLEPDPTGGDVYTVTVTFPDGSTVTRNATPAELKAEGLTVKVSAGGSAGGSAGG [r7_14_JUSTAS] | 0.88 ± 0.044 kcal/mol | 0.967 ± 0.072 kcal/mol | 1.09 ± 0.039 kcal/mol
SAGGAEEIRKELGISPEEKVTVKLVVPEGGRPREFTVEMKPDELEKVLEELGVPPEKLEITEVEVIEESAGG [r13_681_JUSTAS] | -0.121 ± 0.21 kcal/mol | -0.456 ± 0.21 kcal/mol | -1.39 ± 0.38 kcal/mol
SASSSSSSYNVTIDPATGTVTVTNPDGSTTTVPPGSTLTVTSTSSDGGSALGSSTPSTSTTTIPVPAGTSAG [r14_366_JUSTAS] | 0.699 ± 0.091 kcal/mol | 0.919 ± 0.071 kcal/mol | 1.05 ± 0.05 kcal/mol
SAGGSAGGSAGGTITLPNGAKVTRIEFLPDGTLRVEAVVETDGGPVTVEITLPVYPSLATSAGGSAGGSAGG [r7_37_TrMRF] | 2.13 ± 0.036 kcal/mol | 2.17 ± 0.037 kcal/mol | 2.19 ± 0.058 kcal/mol
SAGGSAGGSASITYENGYATITLKVPEGTVRIVDLATNEVIEIKPGDTVTIRVKIPPPPPESAGGSAGGSAG [r3_185_TrROS_Hall] | 1.55 ± 0.059 kcal/mol | 1.73 ± 0.18 kcal/mol | 2.31 ± 0.095 kcal/mol
SAGGSAGGSAGGGSVVTTETSVSPNGVVTTTTTTTFLDPDGNPLGTTTTTTAHAAPPTTSAGGSAGGSAGGS [r10_403_JUSTAS] | 1.8 ± 0.031 kcal/mol | 2.12 ± 0.024 kcal/mol | 2.58 ± 0.076 kcal/mol
SAGGSAGGSAGGSGMKYKVTVTFPGGEVRSLEVDSVEEALEKLKEENRPIKEVTVEPLESAGGSAGGSAGGS [r4_213_JUSTAS] | 2.54 ± 0.13 kcal/mol | 2.44 ± 0.16 kcal/mol | 2.2 ± 0.14 kcal/mol
SAGGSDVKTYTFVGIDPETGELVETTFRVTPLVPPVPVSVSVSLTLDVDPDGNLHLSLSVSVELGGSAGGSA [r2_326_TrMRF] | 4.74 ± 0.081 kcal/mol | 4.37 ± 0.12 kcal/mol | 3.21 ± 0.11 kcal/mol
SPESIEVQISKSSSTSPSGGSEEIYTVTVTYPATGKTLTKNFTATLNPDGTTNPNGSPEELAAKLAAELLAS [r1_77_JUSTAS] | 2.23 ± 0.026 kcal/mol | 2 ± 0.1 kcal/mol | 1.37 ± 0.079 kcal/mol

Sequence | folding stability dG unfold [1] | folding stability dG unfold [2] | folding stability dG unfold [3]
SAGGMTVTVLEVTEEEVIIDDKKEKIITITIKLPDGTEITVTLSTSEIEAKGLTKEEAVEYIAKKLLSAGGS [r16_625_JUSTAS] | 4.16 ± 0.058 kcal/mol | 3.99 ± 0.078 kcal/mol | 3.55 ± 0.085 kcal/mol
SAGGSAGGSSMSSTVEKEPDDVLIISTKVFFDTDTYSTLTTIVEVKPPLDPSNPELLARALGLLSAGGSAGG [r6_293_JUSTAS] | 1.49 ± 0.039 kcal/mol | 1.3 ± 0.063 kcal/mol | 1.1 ± 0.026 kcal/mol
SAGGSAGGKPTYYVAEVTYPGNLKATVVVEDKDNLTFVIPDTGEVWDLTDLDDIKITPVSADDPSAGGSAGG [r6_222_TrMRF] | 0.95 ± 0.14 kcal/mol | 0.8 ± 0.073 kcal/mol | 0.633 ± 0.033 kcal/mol
SAGGSAGGSLSLPEGFKLSSLVSVEELPGVLRIYFLDPEKPLLYEVVYDLETGEQTVERIPIGSAGGSAGGS [r12_206_JUSTAS] | 2.6 ± 0.051 kcal/mol | 2.5 ± 0.072 kcal/mol | 2.43 ± 0.065 kcal/mol
SAGMPAETETTVTITTETIDEKGNLSTKTYTATVRTLPDGRVLVYLENELLLIDPATGEVVAREPNYKPSAG [r14_821_JUSTAS] | 2.264 ± 0.015 kcal/mol | 2.28 ± 0.051 kcal/mol | 2.3 ± 0.025 kcal/mol
SAGGSAGGSAGGKKTITVPVKIEEVDGKFRITLPDGKVIEFPPGAKVEEKDGLLTIELESAGGSAGGSAGGS [r10_305_TrROS_Hall] | 1.13 ± 0.078 kcal/mol | 1.14 ± 0.11 kcal/mol | 0.932 ± 0.025 kcal/mol
SAGGSAGGSSLLVLRELADGGVALHLIDVEPDEPVGVETVLDEFRELHPDTPPLPVLILRPDPSAGGSAGGS [r12_262_TrMRF] | -0.127 ± 0.14 kcal/mol | 0.115 ± 0.073 kcal/mol | 0.251 ± 0.031 kcal/mol
SAGMKIKIVKIEKEEDGTIRVELEITDPNGNKYRVEAEIDLKDPNKIKIKVINEDTGEEFEIELTIKKPSAG [r5_345_TrROS_Hall] | 5.19 ± 0.2 kcal/mol | 5.24 ± 0.35 kcal/mol | 3.6 ± 0.23 kcal/mol
SAGFQIERKRDPDGKYEVEIKFPHPDGHPMRVKIPINPKEGKIKIDEIESTNPGHKQRMEELARWFLKASAG [r5_266_TrROS] | -0.526 ± 0.38 kcal/mol | -0.44 ± 0.16 kcal/mol | -0.4 ± 0.29 kcal/mol
SAGGGEYYAIVRIEVKDPESEETSELELVIPVEGLSEEEALEIARAIAETFPKENVKAEVEIVPRELSAGGS [r16_774_TrMRF] | 0.896 ± 0.16 kcal/mol | 0.936 ± 0.11 kcal/mol | 1.05 ± 0.043 kcal/mol
SEPRYHVEIRLPVLLVVPPELLEPDPERDSYRLPEDDLPVHPDAVIPREVTFSGPMTAEEVVRRTLALLSSA [r9_165_TrMRF] | 1.38 ± 0.13 kcal/mol | 1.04 ± 0.085 kcal/mol | 0.455 ± 0.11 kcal/mol
SAGGSAGGSAGSMEPVKTEELESGEVRTVSLLPDGTIKEELIKIEGEGETVETKVVPLEESAGGSAGGSAGG [r11_699_JUSTAS] | 1.68 ± 0.1 kcal/mol | 1.48 ± 0.2 kcal/mol | 0.745 ± 0.065 kcal/mol
SAGGSAMKITLKPDGTLEIELPDGVKITITRNANGEVTITITYPDGETKTFPAGMTLEQVLAELLASAGGSA [r15_371_TrROS_Hall] | 3.3 ± 0.053 kcal/mol | 3.42 ± 0.051 kcal/mol | 3.56 ± 0.072 kcal/mol
SAGGSAGGMYVKIKVTMTADELKKLFPNIKKGEKVTVELVIKVEKAPPVKVEKKKEKKVEVKLKSAGGSAGG [r6_211_TrROS_Hall] | 2.21 ± 0.041 kcal/mol | 1.74 ± 0.14 kcal/mol | 0.661 ± 0.062 kcal/mol
SKKPKIKIEIEIVEITEVKYDKKTNKITVKVKVKIKIEVEVNGKKKKIEIEIPKNMTLEEILKKLKELLKSA [r9_656_TrROS_Hall] | 1.99 ± 0.12 kcal/mol | 2.28 ± 0.58 kcal/mol | 2.15 ± 0.44 kcal/mol
SAGKDEKLVKVIVKFNDKTFEVVVKEEDLKKLVESGILKVVGKIPGKNIVAIKVEVPPPKGDPVGPTPVSAG [r5_868_TrMRF] | 2.82 ± 0.14 kcal/mol | 2.5 ± 0.17 kcal/mol | 2.08 ± 0.24 kcal/mol
SAGGMEVREIDVENEDGHNVKIEIWWMPGEGWIMVKIEGPNPALIDDIQKEIGLPILEVMKDGYLMIKSAGG [r13_937_TrROS] | 2.6 ± 0.033 kcal/mol | 2.22 ± 0.091 kcal/mol | 1.16 ± 0.03 kcal/mol
SAGGSWVIIIQITIRNPGEERKITIPMEEIQGMPLEQIADNLRKLPGIGDVTIEIQEFPPPKPNDPSAGGSA [r2_282_TrROS] | 2.34 ± 0.099 kcal/mol | 2.31 ± 0.2 kcal/mol | 2.31 ± 0.11 kcal/mol
SAGGKEVKIEIEEKDGKLVIKITVKTEEELKEEIKKLLEEEFGLEVEEVKVEKNKNGEVTIYVVIKKKSAGG [r13_158_TrROS_Hall] | 2.64 ± 0.2 kcal/mol | 2.51 ± 0.44 kcal/mol | 1.45 ± 0.17 kcal/mol
SAGGAFIKDFDVEEDPNGHRKFKFELPNGWKYDITIHPDFPQIEIKPIKPIEPPPIPADDPEQAEEQSAGGS [r16_482_TrROS] | 0.429 ± 0.47 kcal/mol | 0.552 ± 0.37 kcal/mol | 0.699 ± 0.11 kcal/mol
SAGVISPTDPTTTTTTEVRESEDGTTTTVSTVTYPGTGSTMTVTTTTTHDPSTGTSTVTSTTTTDPSASAGG [r19_342_JUSTAS] | 0.394 ± 0.029 kcal/mol | 1.08 ± 0.059 kcal/mol | 1.57 ± 0.086 kcal/mol
